# Experimental data from the supplement of paper PMC5998384.
# Columns and labels:
# HeLa Kyoto [1] = assay: solubility in G1/S (NP-40 vs SDS abundance) (log2 ratio); higher = more soluble; details: cell cycle stage: G1/S
# HeLa Kyoto [2] = assay: solubility change mitosis vs G1/S (difference of NP-40 vs SDS log2 ratios) (log2 ratio difference); higher = more soluble in mitosis
# HeLa Kyoto [3] = assay: melting temperature (median over replicates), in situ; higher = more thermally stable
# HeLa Kyoto [4] = assay: thermal stability score vs G1/S (z-score of summed log2 fold changes over temperatures); higher = more thermally stable than in G1/S
# [5] = cell cycle stage: early G1 (4.5 h after nocodazole release)
# 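For melting temperature (median over replicates), in situ in this document: HeLa Kyoto cells synchronized by double thymidine or nocodazole block, proteins quantified by TMT10plex mass spectrometry, three independent biological replicates.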
# 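For solubility change mitosis vs G1/S (difference of NP-40 vs SDS log2 ratios) in this document: synchronized HeLa Kyoto cells (double thymidine block for G1/S, nocodazole release for mitosis), protein amounts in NP-40 versus SDS lysates quantified by mass spectrometry, three biological replicates.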
# 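For solubility in G1/S (NP-40 vs SDS abundance) in this document: HeLa Kyoto cells arrested at G1/S by double thymidine block, proteins quantified by TMT10plex mass spectrometry in mild NP-40 versus SDS extracts, three biological replicates.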
# 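For thermal stability score vs G1/S (z-score of summed log2 fold changes over temperatures) in this document: synchronized HeLa Kyoto cells, proteins quantified by TMT10plex mass spectrometry, three biological replicates, mitosis taken 0.5 h after nocodazole release, G1/S directly after double thymidine block.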
Substance,solubility in G1/S (log2) (HeLa Kyoto [1]),solubility change mitosis (log2) (HeLa Kyoto [2]),melting temperature (HeLa Kyoto [3]; cell cycle stage: G1/S) [°C],melting temperature (HeLa Kyoto [3]; cell cycle stage: mitosis) [°C],thermal stability score (HeLa Kyoto [4]; [5]),thermal stability score (HeLa Kyoto [4]; cell cycle stage: mitosis)
MNVVFAVKQYISKMIEDSGPGMKVLLMDKETTGIVSMVYTQSEILQKEVYLFERIDSQNREIMKHLKAICFLRPTKENVDYIIQELRRPKYTIYFIYFSNVISKSDVKSLAEADEQEVVAEVQEFYGDYIAVNPHLFSLNILGCCQGRNWDPAQLSRTTQGLTALLLSLKKCPMIRYQLSSEAAKRLAECVKQVITKEYELFEFRRTEVPPLLLILDRCDDAITPLLNQWTYQAMVHELLGINNNRIDLSRVPGISKDLREVVLSAENDEFYANNMYLNFAEIGSNIKNLMEDFQKKKPKEQQKLESIADMKAFVENYPQFKKMSGTVSKHVTVVGELSRLVSERNLLEVSEVEQELACQNDHSSALQNIKRLLQNPKVTEFDAARLVMLYALHYERHSSNSLPGLMMDLRNKGVSEKYRKLVSAVVEYGGKRVRGSDLFSPKDAVAITKQFLKGLKGVENVYTQHQPFLHETLDHLIKGRLKENLYPYLGPSTLRDRPQDIIVFVIGGATYEEALTVYNLNRTTPGVRIVLGGTTVHNTKSFLEEVLASGLHSRSKESSQVTSRSASRR [VPS45],0.0246,-0.166,49.6,49.9,0.581,1.21
MIASHLLAYFFTELNHDQVQKVDQYLYHMRLSDETLLEISKRFRKEMEKGLGATTHPTAAVKMLPTFVRSTPDGTEHGEFLALDLGGTNFRVLWVKVTDNGLQKVEMENQIYAIPEDIMRGSGTQLFDHIAECLANFMDKLQIKDKKLPLGFTFSFPCHQTKLDESFLVSWTKGFKSSGVEGRDVVALIRKAIQRRGDFDIDIVAVVNDTVGTMMTCGYDDHNCEIGLIVGTGSNACYMEEMRHIDMVEGDEGRMCINMEWGAFGDDGSLNDIRTEFDQEIDMGSLNPGKQLFEKMISGMYMGELVRLILVKMAKEELLFGGKLSPELLNTGRFETKDISDIEGEKDGIRKAREVLMRLGLDPTQEDCVATHRICQIVSTRSASLCAATLAAVLQRIKENKGEERLRSTIGVDGSVYKKHPHFAKRLHKTVRRLVPGCDVRFLRSEDGSGKGAAMVTAVAYRLADQHRARQKTLEHLQLSHDQLLEVKRRMKVEMERGLSKETHASAPVKMLPTYVCATPDGTEKGDFLALDLGGTNFRVLLVRVRNGKWGGVEMHNKIYAIPQEVMHGTGDELFDHIVQCIADFLEYMGMKGVSLPLGFTFSFPCQQNSLDESILLKWTKGFKASGCEGEDVVTLLKEAIHRREEFDLDVVAVVNDTVGTMMTCGFEDPHCEVGLIVGTGSNACYMEEMRNVELVEGEEGRMCVNMEWGAFGDNGCLDDFRTEFDVAVDELSLNPGKQRFEKMISGMYLGEIVRNILIDFTKRGLLFRGRISERLKTRGIFETKFLSQIESDCLALLQVRAILQHLGLESTCDDSIIVKEVCTVVARRAAQLCGAGMAAVVDRIRENRGLDALKVTVGVDGTLYKLHPHFAKVMHETVKDLAPKCDVSFLQSEDGSGKGAALITAVACRIREAGQR [HK2],-0.166,-0.148,48.2,49.1,1.07,2.33
MADILSQSETLASQDLSGDFKKPALPVSPAARSKAPASSSSNPEEVQKEGPTALQDSNSGEPDIPPPQPDCGDFRSLQEEQSRPPTAVSSPGGPARAPPYQEPPWGGPATAPYSLETLKGGTILGTRSLKGTSYCLFGRLSGCDVCLEHPSVSRYHAVLQHRASGPDGECDSNGPGFYLYDLGSTHGTFLNKTRIPPRTYCRVHVGHVVRFGGSTRLFILQGPEEDREAESELTVTQLKELRKQQQILLEKKMLGEDSDEEEEMDTSERKINAGSQDDEMGCTWGMGEDAVEDDAEENPIVLEFQQEREAFYIKDPKKALQGFFDREGEELEYEFDEQGHSTWLCRVRLPVDDSTGKQLVAEAIHSGKKKEAMIQCSLEACRILDTLGLLRQEAVSRKRKAKNWEDEDFYDSDDDTFLDRTGLIEKKRLNRMKKAGKIDEKPETFESLVAKLNDAERELSEISERLKASSQVLSESPSQDSLDAFMSEMKSGSTLDGVSRKKLHLRTFELRKEQQRLKGLIKIVKPAEIPELKKTETQTTGAENKAKKLTLPLFGAMKGGSKFKLKTGTVGKLPPKRPELPPTLMRMKDEPEVEEEEEEEEEEEKEKEEHEKKKLEDGSLSRPQPEIEPEAAVQEMRPPTDLTHFKETQTHENMSQLSEEEQNKDYQDCSKTTSLCAGPSASKNEYEKSRGELKKKKTPGPGKLPPTLSSKYPEDDPDYCVWVPPEGQSGDGRTHLNDKYGY [SLC4A1AP],0.0907,-0.0506,50.1,51.7,-0.0668,1.11
MPMWAGGVGSPRRGMAPASTDDLFARKLRQPARPPLTPHTFEPRPVRGPLLRSGSDAGEARPPTPASPRARAHSHEEASRPAATSTRLFTDPLALLGLPAEEPEPAFPPVLEPRWFAHYDVQSLLFDWAPRSQGMGSHSEASSGTLASAEDQAASSDLLHGAPGFVCELGGEGELGLGGPASPPVPPALPNAAVSILEEPQNRTSAYSLEHADLGAGYYRKYFYGKEHQNFFGMDESLGPVAVSLRREEKEGSGGGTLHSYRVIVRTTQLRTLRGTISEDALPPGPPRGLSPRKLLEHVAPQLSPSCLRLGSASPKVPRTLLTLDEQVLSFQRKVGILYCRAGQGSEEEMYNNQEAGPAFMQFLTLLGDVVRLKGFESYRAQLDTKTDSTGTHSLYTTYQDHEIMFHVSTMLPYTPNNQQQLLRKRHIGNDIVTIVFQEPGSKPFCPTTIRSHFQHVFLVVRAHTPCTPHTTYRVAVSRTQDTPAFGPALPAGGGPFAANADFRAFLLAKALNGEQAAGHARQFHAMATRTRQQYLQDLATNEVTTTSLDSASRFGLPSLGGRRRAAPRGPGAELQAAGSLVWGVRAAPGARVAAGAQASGPEGIEVPCLLGISAEALVLVAPRDGRVVFNCACRDVLAWTFSEQQLDLYHGRGEAITLRFDGSPGQAVGEVVARLQLVSRGCETRELALPRDGQGRLGFEVDAEGFVTHVERFTFAETAGLRPGARLLRVCGQTLPSLRPEAAAQLLRSAPKVCVTVLPPDESGRPRRSFSELYTLSLQEPSRRGAPDPVQDEVQGVTLLPTTKQLLHLCLQDGGSPPGPGDLAEERTEFLHSQNSLSPRSSLSDEAPVLPNTTPDLLLATTAKPSVPSADSETPLTQDRPGSPSGSEDKGNPAPELRASFLPRTLSLRNSISRIMSEAGSGTLEDEWQAISEIASTCNTILESLSREGQPIPESGDPKGTPKSDAEPEPGNLSEKVSHLESMLRKLQEDLQKEKADRAALEEEVRSLRHNNRRLQAESESAATRLLLASKQLGSPTADLA [SIPA1],-0.217,0.0512,50.8,51.4,1.19,0.467
TCF20,-0.513,0.527,–,51.1,0.72,1.03
MDEAVGDLKQALPCVAESPTVHVEVHQRGSSTAKKEDINLSVRKLLNRHNIVFGDYTWTEFDEPFLTRNVQSVSIIDTELKVKDSQPIDLSACTVALHIFQLNEDGPSSENLEEETENIIAANHWVLPAAEFHGLWDSLVYDVEVKSHLLDYVMTTLLFSDKNVNSNLITWNRVVLLHGPPGTGKTSLCKALAQKLTIRLSSRYRYGQLIEINSHSLFSKWFSESGKLVTKMFQKIQDLIDDKDALVFVLIDEVESLTAARNACRAGTEPSDAIRVVNAVLTQIDQIKRHSNVVILTTSNITEKIDVAFVDRADIKQYIGPPSAAAIFKIYLSCLEELMKCQIIYPRQQLLTLRELEMIGFIENNVSKLSLLLNDISRKSEGLSGRVLRKLPFLAHALYVQAPTVTIEGFLQALSLAVDKQFEERKKLAAYI [TRIP13],-0.0812,-0.116,50.9,51.3,3.83,2.94
MPKHEFSVDMTCGGCAEAVSRVLNKLGGVKYDIDLPNKKVCIESEHSMDTLLATLKKTGKTVSYLGLE [ATOX1],-0.375,0.149,54.8,52.8,-3.27,-2.04
MPNQGEDCYFFFYSTCTKGDSCPFRHCEAAIGNETVCTLWQEGRCFRQVCRFRHMEIDKKRSEIPCYWENQPTGCQKLNCAFHHNRGRYVDGLFLPPSKTVLPTVPESPEEEVKASQLSVQQNKLSVQSNPSPQLRSVMKVESSENVPSPTHPPVVINAADDDEDDDDQFSEEGDETKTPTLQPTPEVHNGLRVTSVRKPAVNIKQGECLNFGIKTLEEIKSKKMKEKSKKQGEGSSGVSSLLLHPEPVPGPEKENVRTVVRTVTLSTKQGEEPLVRLSLTERLGKRKFSAGGDSDPPLKRSLAQRLGKKVEAPETNIDKTPKKAQVSKSLKERLGMSADPDNEDATDKVNKVGEIHVKTLEEILLERASQKRGELQTKLKTEGPSKTDDSTSGARSSSTIRIKTFSEVLAEKKHRQQEAERQKSKKDTTCIKLKIDSEIKKTVVLPPIVASRGQSEEPAGKTKSMQEVHIKTLEEIKLEKALRVQQSSESSTSSPSQHEATPGARRLLRITKRTGMKEEKNLQEGNEVDSQSSIRTEAKEASGETTGVDITKIQVKRCETMREKHMQKQQEREKSVLTPLRGDVASCNTQVAEKPVLTAVPGITRHLTKRLPTKSSQKVEVETSGIGDSLLNVKCAAQTLEKRGKAKPKVNVKPSVVKVVSSPKLAPKRKAVEMHAAVIAAVKPLSSSSVLQEPPAKKAAVAVVPLVSEDKSVTVPEAENPRDSLVLPPTQSSSDSSPPEVSGPSSSQMSMKTRRLSSASTGKPPLSVEDDFEKLIWEISGGKLEAEIDLDPGKDEDDLLLELSEMIDS [ZC3H11A],-0.583,0.559,45.8,48.6,2.36,7.44
SAR1B,-0.00727,-0.182,52.3,53.4,0.15,0.55
MIAAPEIPTDFNLLQESETHFSSDTDFEDIEGKNQKQGKGKTCKKGKKGPAEKGKGGNGGGKPPSGPNRMNGHHQQNGVENMMLFEVVKMGKSAMQSVVDDWIESYKHDRDIALLDLINFFIQCSGCKGVVTAEMFRHMQNSEIIRKMTEEFDEDSGDYPLTMAGPQWKKFKSSFCEFIGVLVRQCQYSIIYDEYMMDTVISLLTGLSDSQVRAFRHTSTLAAMKLMTALVNVALNLSINMDNTQRQYEAERNKMIGKRANERLELLLQKRKELQENQDEIENMMNAIFKGVFVHRYRDAIAEIRAICIEEIGIWMKMYSDAFLNDSYLKYVGWTMHDKQGEVRLKCLTALQGLYYNKELNSKLELFTSRFKDRIVSMTLDKEYDVAVQAIKLLTLVLQSSEEVLTAEDCENVYHLVYSAHRPVAVAAGEFLYKKLFSRRDPEEDGMMKRRGRQGPNANLVKTLVFFFLESELHEHAAYLVDSMWDCATELLKDWECMNSLLLEEPLSGEEALTDRQESALIEIMLCTIRQAAECHPPVGRGTGKRVLTAKEKKTQLDDRTKITELFAVALPQLLAKYSVDAEKVTNLLQLPQYFDLEIYTTGRLEKHLDALLRQIRNIVEKHTDTDVLEACSKTYHALCNEEFTIFNRVDISRSQLIDELADKFNRLLEDFLQEGEEPDEDDAYQVLSTLKRITAFHNAHDLSKWDLFACNYKLLKTGIENGDMPEQIVIHALQCTHYVILWQLAKITESSSTKEDLLRLKKQMRVFCQICQHYLTNVNTTVKEQAFTILCDILMIFSHQIMSGGRDMLEPLVYTPDSSLQSELLSFILDHVFIEQDDDNNSADGQQEDEASKIEALHKRRNLLAAFCKLIVYTVVEMNTAADIFKQYMKYYNDYGDIIKETMSKTRQIDKIQCAKTLILSLQQLFNEMIQENGYNFDRSSSTFSGIKELARRFALTFGLDQLKTREAIAMLHKDGIEFAFKEPNPQGESHPPLNLAFLDILSEFSSKLLRQDKRTVYVYLEKFMTFQMSLRREDVWLPLMSYRNSLLAGGDDDTMSVISGISSRGSTVRSKKSKPSTGKRKVVEGMQLSLTEESSSSDSMWLSREQTLHTPVMMQTPQLTSTIMREPKRLRPEDSFMSVYPMQTEHHQTPLDYNRRGTSLMEDDEEPIVEDVMMSSEGRIEDLNEGMDFDTMDIDLPPSKNRRERTELKPDFFDPASIMDESVLGVSMF [STAG2],-0.185,-0.0337,52.9,51.6,-0.506,-0.478
